Results on one molecule are retold here after patent publication US20210087238A1, “CELL PENETRATING PEPTIDES AND RELATED COMPOSITIONS AND METHODS” (Phylogica Limited, priority 2017, published 2021).

Entries after “also recorded” stand apart in the source; their conditions may differ.

For assay [1], the system named is AMO-1 (plasmacytoma). Put plainly: Omomyc cell viability assay, ATP activity. Type of assay: cell-based. As to conditions: AMO-1 cells only. Here is the method:
(§1) Treatment of (A) AMO-1 (plasmacytoma), (B) HL-60 (promyelocytic leukemia), and (C) T47D (breast cancer) cell lines with FPP-1.1_Omomyc protein. After 48 h incubation, cell viability was assessed by measuring ATP activity. […] Results are representative of two independent experiments. Error bars represent standard deviation from the mean of duplicate samples.
(§2) All assays followed manufacturer's instructions.

Assay [2] has as its system AMO-1, HL-60, and T47D cell lines. As to the kind of experiment: Omomyc cell viability assay, statements made for all three cell lines together. The class given is cell-based. The following applies: 48 h; ATP activity; AMO-1, HL-60, T47D. Here is the method: as §1
Treatment of AMO-1 (plasmacytoma), HL-60 (promyelocytic leukemia), and T47D (breast cancer) cell lines with FPP1.1_Omomyc or small molecule inhibitors. After a 48 h incubation, the cell viability was assessed by measuring ATP activity. […] Results are from one independent experiment. Error bars represent standard deviation from the mean of duplicate samples.
as §2

B1: Omomyc: Myc dominant negative peptide (protein)
chain: GPGGSGTGATSDTEENVKRRTHNVLERQRRNELKRSFFALRDQIPELENNEKAPKVVILKKATAYILSVQAETQKLISEIDLLRKQNEQLKHKLEQLRNSCA
modifications: Amino acid sequence of Omomyc
notes: Myc dominant negative peptide
On to B1, for which the “doses at which a slight reduction in cell viability was seen” value in assay [1] was “above 10 μM”. In addition, the “effect on cell viability” value in assay [2] is listed as “no effect on cell viability; also recorded: poor potency; also recorded: minor effect on cell viability only at the highest concentrations”.
